Measurements reported in the DeepSol protein solubility set.

Experiment: soluble on expression in E. coli; label from the status in PepcDB or PDB records

Sequence | soluble on expression in E. coli
MHMVTYPCLTSRRFQLALIHRRVVDKRTSMHSRTASESTGARIHRPWCARHQVRPAWRCQYDKLHRVPFRSPELRLDSGPGYTTGSYRYMAGDPLEHHHHHH | not soluble
IDKITYPTRIGAVVFPHKKHQDALGECRGCHEKGPGRIDGFDKVMAHGKGCKGCHEEMKIGPVRCGDCHKGGSTH | soluble
SLAWHQRKHTQATPLRDIAADYTLQDFKLVALDTQTGKESLTLLGQQMQHNQTDSSAEVTAPLFMIPDQAGQHWTLQAQTGWINKDGTLLRLRHDVKGDSPTDLGQLPTTFRTQSLDIYPNHHLAKTTDAVTITHQGIIQTGVGFEVNTKTQQYKFNSKVNTRYEPSAAR | soluble
EHRYGHLLGQINWISLGGGIHFTEPGYALDAFCDRLRRFSEQYGVQVYLEPGEAAITNTATLEVTVLDVMRNEKNLAIVDAATEAHMLDLLIYRMSARVQPDQGPHRYVIYGNSCLAGDVFGEFSFESPLQPGSRISIQDAAGYTMVKKNWFNGVRMPAIAIRELDGEIRLVREFGYQD | not soluble
MGHHHHHHSHMTIEEFAAGPAQSGILVDREVVSLFLHFTVNPKPRVEFIDRPRCCLRGKECSINRFQQVESRWGYSGTSDRIRFSVNKRIFVVGFGLYGSIHGPTDYQVNIQIIHTDSNTVLGQNDTGFSCDGSASTFRVMFKEPVEVLPNVNYTACATLKGPDSHYGTKGLRKVTHESPTTGAKTCFTFCYAAGNNNGTSVEDGQIPEVIFYT | not soluble
MNLNYKFERLYRVLFNEEMFYVAYQNIYSKTGNMTAGADGKTIDGMSIDRVEQLIGSLKNETYQPNPSKRTYIPKKNGKKRPLGIPSFDDKLVQEVVRMILEAIYEGSFEHTSHGFRPKRSCHTALIDIQKTFTAVKWFIEGDIKGFFDNINHDVLINILRERIADERFLRLIRKFLNAGYVEDWVFHRTYSGTPQGGIISPILANIYLDKFDKYIKEYINRFNKGVTRKGDARYKLYEQRRYRLAKKLKNEKDVKVRKQMTAEIKRLREERNNYPARNEMDSSIKRLKYVRYADDFLIGITGNLEDCKTVKEDIKNYLNEALKLELSDEKTLITNAQKPAKFLGYDVFIRRCNDLRKDKYGKTVRAFGHKPVLYLNFETMRKKLFDYKAARIAVVNGKEVWKSIVRTYMLNLDDLEIVSQFNAEIRGFYNYYSIANNSYVINSFYHIMSYSMYKVFANKYKSSVKKILLKYKKNKVFQVAYENSKGKTLYQSFYHDGFKRKKVAGNIYCDTIPRTVSITGGRNSLMERLKLQVCELCGATDKLEMHHVRKLKDLKGKSDWEKKMIARRRKTLAVCSKCHAKIDPDRRIRLNLEHHHHHH | not soluble
MSKVALFSHVSPDGDCIGSMLGIGLALEALGKEVAMFNPDPIPRNLSFLPGVDKITQSMPDPLPETLLFVDCADLQRVQLQREDLPADAVILNLDHHISNQNFGRINWVDSQAAASGELAYALVRRLNVELTQEIAANFYTALLTDTGSFKYANTTAKTHQIAGELMELEHHHHHH | not soluble
MGSDKIHHHHHHMNRISVVILNWNGCEMLRSFLPSVLRYSEAEGVEVCVADNGSTDQSVEMLRREFPSVRRILLDGNHGFADGYNLALRQVEAEYVVLLNSDVEVTGQWLQPMAAYLDAHPEVAACQPKIRSWRQKEWFEYAGAAGGFIDRYGYPFCRGRVMGVVEADRGQYDTVLPIFWATGAAMFIRLADYREAGGLDGRFFAHMEEIDLCWRLRARGRGIVCIPQSVVYHVGGATLKKENPHKTFLNFRNNLVMLYKNLPDRELAGVMRVRCWLDYIAAATFALKGQPANAKAVVRARREFKLLRDSFRDARAENLRKTSSHFIPERIKSSILVQFYVKGRKFFSQLSDLKG | not soluble
MGSDKIHHHHHHMKFPERFAHLPPYAFPRLRALLDHHAPGGDVVQLTIGEPKHEFPAWVTDVIVENASAFNNYPQNEGSDALRGAMADWAAQRYGVTLDPATRVMALNGTREGLYNAAMALCPEEKNGQRPVVLIPNPFYQVYMIAAISVAAEPVFVPATDETGHLPDYASLPEEVLNRTAIAYICSPANPQGAVASREYWQQLFALAEKYDFKVFADECYSEIYRDTAPVGALTVADEMGLDPERVVLFNSLSKRSNLPGLRCGLLAGGPETLVQVKKLRAYSGAPIPGPLQAAAAKVWADEVHVAENRALYQEKYRIADEVFAGLNGYMSPEAGFFLWLPVEDGEAATLKLWQETGVRVLPGAFLAQGKGAENPGHGYIRVALVASEEQTRASLQLLRDCLY | not soluble
MPRPQGTVAAAAATTSMSSTRARKDPLRRIGNGNAVAGGLDMTRVGILSDRELAFFQRLAYTGSQAAEQQQRDARKQEEDRRRELSKTRTAGWTDTIEARHDQFVQAQQDAKDAAEARQKVLDELYAKQLEEEHKAVIARQALEHLKEDPRGRHLRSMNMLHEALKARKEQVAYKQMLQREDEAQNANAQREFQLQRWGDQAEELHKKLKARQRNVEEKNANLETVLFQIDQRRQERAVQQQDRKHIDQEAAEERAEQQEEAAQRRARELENGAYNKAHSRPALTRSEKLQTRVAENVKDEAALRAEEEKVDSIKRWVMERQQNKLAAFEERKKAGLRRYLDEAKQENLPTYRTQDVFEKGESFLQKLYDGDVKQQEKQHEYRLEMEQQRLEMEEQKAAEARGDVVGSGDGADGSTSRRHAAATTAAGFLNKAEEMAYAEEMRRYPEQLRAKEAEEAAARRAEALRIERIQKLQAAEKRENARRAVEARREEFRQQQSQQEADDARYRAYIDSVVPADMDPILYRKATQLH | soluble
MGSDKIHHHHHHMFEVFNYEDIICARGNREMPWKPSFQMNVYYYLIDGLLIDSGPYSLAKEAIEFFNAHIIEQVFLSHIHEDHAGMAYWLQEKMQIPIYLHEGSLEEARREPELAKYRLGIWGRRKAFNAEPINDTIKTGSYVFDVIDSPGHCPYHKVLHEKTKGWLFSGDLLNNLKPKSVMFDENTNDTILSIRKVLDLDFTTVFCAHTGIRKNAKNLFLKKLNYLLELQKDTQVLRNRGFSNTEIVEQLFPGPDPISSLSGGEFSSYYLVSTL | not soluble
MSKTVTIRRPSPTKTSEEPAAHQTPIFTQTAAEMLGITSLNTEAAELLEFLSREKLKEIVRLSAKWTQKSARRRMAVADVEHAIRSTRQCGGLNISSVDTLNLGIQQLQPIQGTSTGIYSFLKSSADVDVDKEDTETFIKIPRDLRVISYPLVNEGQPVQSEYTVNVDEDDGNFFEKIVPEVMTMIPEKNTPSSSTTSSLQMFRDAVKTAKIDQKVGLKPSTIEILTVEQQIFMKDIITVCMGQDDKKRHEALYTLETDAGLQVFLPHLTERICKSISANISQRCLSLIIYAGRVLRSLSHNKACDMTVTLHHVLPALLSCCVGRNMCLRPETDNHWALRDFSAKTLVGLVRDQVDKHDAGRTARRLFDFSHRIFRDTGSSFSMIYGTVHILQEFVAGPKKAAWLLTELGETNARCKSHIESGSRIGASQLSIQEAQKLNQQILKCENSIRNRYNLQQQAPGVPINRRFH | not soluble
MEGLSMDQVVIFKQIFDKVRNDLNYQWFYSELKRHNVSHYIYYLATENVHIVLKNDNTVLLKGLKNIVSVKFSKDRHLIETTSNKLKSREITFQEYRRNLAKAGVFRWVTNIHEQKRYYYTFDNSLLFTESIQKTTQILPRLEHHHHHH | soluble
MGNCWFKGNPYFNRVSSNATKSESPKMQSPSERKEKDDSMLPSNAKEVEELRRESARNPLIAFTFEELKRITKNFRQDSLLGGGGFGRVYKGYITSDLREGLTIEEPLRVAVKVHDGDNSFQGHREWLAEVIFLGQLSHPNLVKLIGYCCEDDHRVLVYEFMPLGSVESHLFSRVMVPLPWFTRMKIALGAAKGLAFLHEAEKPVIYRDFKTSNILLDEEYNAKLSDFGLAKDGPVGDKSHVSTRIMGTYGYAAPEYIMTGHLTAMSDVYSYGVVLLELLTGRKSLDKSRPVREQTLADWAFPMLIQKKKVLGIVDPRLAEDYPVKAVQKTAMLAYHCLNRNPKARPLMRDIVATLEPLQQMEEDPSISLVSGTEV | soluble
MEFVLASASPARRRLLQGIGINPIVHVSHFDESQIHHDDPAQLVEALAAAKAKTVAQHRQDALILGCDSVLHVRGEILGKPASPTEAIARWQTMRGHYGLLYTGHALVDQTQNQLLVRHGVTKVYFAAIDDDTIAAYVRSGEPLQCAGCFALEGKGGLFIEKIEGCHSNVIGLSLPLLREMLAHLGYTVQTLWP | not soluble
